According to patent publication US20160287696A1, “PAN POLLEN IMMUNOGENS AND METHODS AND USES FOR IMMUNE RESPONSE MODULATION” (LA JOLLA INSTITUTE FOR ALLERGY AND IMMUNOLOGY, priority 2013, published 2016):

B1: NTGA 51: Phl p wild type sequence, Table 2 (protein)
chain: MSPAEPTREESVYMAKLAEQAERYEEMVEFMERVAKATGGAGPGEELSVEERNLLSVAYKNVIGARRASWRIISSIEQKEEGRGNDAHATTIRSYRSKIEAELAKICDGILALLDSHLVPSAGAAESKVFYLKMKGDYHRYLAEFKSGAERKEAAESTMNSYKAAQDIALADLAPTHPIRLGLALNFSVFYYEILNSPDRACNLAKQAFDEAISELDSLGEESYKDSTLIMQLLRDNLTLWTSDTNEDGGDEIKEAPAPKESGD
modifications: Phleum Pratense
B2: NTGA 77: Phl p wild type sequence, Table 2 (protein)
chain: QEVAGDVRMTDTRADEAERGITIKSTGISLYYEMSEESLASYKGDRDGNDYLINLIDSPGHVDFSSEVTAALRITDGALVVVDCIEGVCVQTETVLRQALGERIRPVLTVNKMDRCFLELQVDGEEAYQTFSRVIENANVIMATYEDALLGDVQVYPEKGTVAFSAGLHGWAFTLTNFAKMYASKFGVDESKMMERLWGENFFDPATKKWTSKNTGSGTCKRGFVQFCYEPIKQIIEICMNDQKDKLWPMLKKLGVTMKNDEKDLMGKALMKRVMQAWLPASRALLEMMVYHLPSPSKAQRYRVENLYEGPLDDVYANAIRNCDPEGPLMLYVSKMIPASDKGRFFAFGRVFAGRVATGMKVRIMGPNFVPGQKKDLYTKSVQRTVIWMGKKQESVEDVPCGNTVALVGLDQFITKNATLTGEKEVDACPIRAMKFSVSPVVRVAVQCKVASDLPKLVEGLKRLAKSDPMVLCSIEESGEHIIAGAGELHLEICLKDLQDDFMGGAEIIVSPPVVSFRETVLDKSCRTVMSKSPNKHNRLYMEARPLEEGLPEAIDEGRIGPRDDPKVRSKILSEEFGWDKDLAKKIWCFGPETTGPNMVVDMCKGVQYLNEIKDSVVAGFQWASKEGALADENMRGICFEVCDVVLHTDAIHRGGGQVIPTARRVIFASQLTAKPRLLEPVYLVEIQAPEGALGGIYGVLNQKRGHVFEEMQRPGTPLYNIKAYLPVIESFGFSATLRAATSGQAFPQCVFDHWDVMNSDPLEVDSQSFNLVKEIRKRKGLKEQMTPLSDFEDKL
modifications: Phleum Pratense
B3: NTGA 65: Phl p wild type sequence, Table 2 (protein)
chain: AMAVDLTPRQPTKAYGGDGGAYYEWSPAELPMLGVASIGAAKLSLAAGGMSLPSYSDSAKVAYVLQGKGTCGIVLPEATKEKVVAIKEGDALALPFGVVTWWHNTPESSTELVVLFLGDTSKGHTPGKFTNFQLTGATGIFTGFSTEFVARAWDLDQDAAASLVSTQPGTGIVKLAPGHKMPVARAEDRKGMALNCLEAKLDVDIPNGGRVVVLNTVNLPLVKEVGLGADLVRIDAHSMCSPGFSCDSAYQVTYIVRGSGRVQVVGPDGKRVLETRIEGGSLFIVPRFHVVSKIADASGMEWFSIITTPNPIFSHLAGKTSVWKAISPEVLEAAFNTTPEMEKLFRSKRLDSEIFFAPS
modifications: Phleum Pratense
B4: NTGA 34: Phl p wild type sequence, Table 2 (protein)
chain: MSFSWICACVRAAAVAWEAGKPLSIEEVEVAPPQAMEVRVKILFTALCHTDVYFWEAKGQTPVFPRIFGHEAGGIVESVGEGVTDVAPGDHVLPVFTGECKECRHCKSAESNMCDLLRINTDRGVMISDGKSRFSIDGKPIFHFVGTSTFSEYTVMHVGCVAKINPEAPLDKVCVLSCGISTGLGASINVAKPPKGSTVAIFGLGAVGLAAAEGARIAGASRIIGIDLNANRFEEARKFGCTEFVNPKDHTKPVQEVLAEMTDGGVDRSVECTGNINAMIQAFECVHDGWGVAVLVGVPHKDAEFKTHPMNFLNERTLKGTFFGNFKPRTDLPNVVEMYMKKELEVEKFITHSVTFSEINKAFDLMAKGEGIRCIIRMEH
modifications: Phleum Pratense
B5: NTGA 56: Phl p wild type sequence, Table 2 (protein)
chain: MARLLFPLPIAAAAVSASSIHLAASRFRLPVVSAARRGTLFGGRVAVRAPARLATRGVSAGAEAGGSAARAGTVIGPEEALEWVKNDRRRLLHVVYRVGDLDKTIKFYTECLGMKLLRKRDIPEERYTNAFLGYGPEDSHFVVELTYNYGVESYDIGSGFGHFGIAVEDVEKTVELIKAKGGTVTREPGPVKGGKSVIAFIEDPDGYKFELIERGPTPEPLCQVMLRVGDLDRAIKFYEKAFGMELLRRKDNPQYKYTIAMMGYGPEDKNAVLELTYNYGVKEYDKGNAYAQIAIGTDDVYKTAEVVRQNGGQITREPGPLPGISTKITACTDPDGWKSVFVDNLDFLKELEE
modifications: Phleum Pratense
B6: NTGA 76: Phl p wild type sequence, Table 2 (protein)
chain: MASHIVGYPRMGPKRELKFALESFWDGKSSAEDLEKVATDLRASIWKQMSEAGIKYIPSNTFSYYDQVLDTTAMLGAVPDRYSWTGGEIGHSTYFSMARGNATVPAMEMTKWFDTNYHFIVPELGPETKFSYASHKAVSEYKEAKALGVDTVPVLVGPVSYLLLSKAAKGVEKSFSLLSLLGGILPIYKEVVAELKAAGASWIQFDEPTLVKDLAAHELAAFSSAYAELESSLSGLNVLIETYFADVPAESYKTLTSLSGVTAYGFDLVRGTKTLDLLKSVGIPSGKYLFAGVVDGRNIWADDLAASLSTLESLEAIVGKDKLVVSTSCSLMHTAVDLVNETKLDSEIKSWLAFAAQKVVEVNALGKALVGLKDEAYFAANAAAQASRRSSPRVNNEEVQKAAAALKGSDHRRATTVSARLDAQQKKLNLPVLPTTTIGSFPQTMDLRRVRREYKAKKISEEAYVSAIKEEISKVVKIQEELDIDVLVHGEPERNDMVEYFGEQLSGFAFTANGWVQSYGSRCVKPPIIYGDVSRPNPMTVFWSKMAQSMTPRPMKGMLTGPV
modifications: Phleum Pratense
B7: NTGA 32: Phl p wild type sequence, Table 2 (protein)
chain: MAPIKIGINGFGRIGRLVARVALQCPDVELVAVNDPFITTDYMTYMFKYDTVHGQWKHHDVKVKDAKTLLFGEKEVAVFGCRNPEEIPWGAAGADYVVESTGVFTDKDKAAAHIKGGAKKVIISAPSKDAPMFVCGVNEKEYTSDITIVSNASCTTNCLAPLAKVINDRFGIVEGLMTTVHAMTATQKTVDGPSSKDWRGGRAASFNIIPSSTGAAKAVGKVLPVLNGKLTGMAFRVPTVDVSVVDLTVRLEKAATYEQIKAAIKEESEGNLKGILGYVDEDLVSTDFQGDSRSSIFDAKAGIALNDNFVKLVSWYDNEWGYSTRVVDLIRHIHATK
modifications: Phleum Pratense
B8: NTGA 62: Phl p wild type sequence, Table 2 (protein)
chain: MRRLSLILLAAAALLAAAVSAEPGPAPKLSPDFYSQTCPRAERIIAEVVQSKQMANPTTAAGVLRVFFHDCFVSGCDASVLIAPTHYAKSEKDADINHSLPGDAFDAVVRSKLALELECPGVVSCADILAIASRVLVTMTGGPRYPVPLGRKDSLSSNPAAPDVELPHSNFTVGRIIELFTAKGFTVQEMVALSGAHTLGFSHCQEFASRIYNYRDKGGKPAPFDPSMNPTYAKGLQAACQDYQKDPTIAAFNDIMTPGKFDNMYYVNIERGLGLLSTDEDMWSDMRTKPFVQRYAANNTDFFEDFAKAIEKLSMYGVKTGADGEIRRRCDAFNSGPNIQ
modifications: Phleum Pratense
B9: NTGA 30: Phl p wild type sequence, Table 2 (protein)
chain: MAGGGVEDVYGEDRATEEQFVTPWSFSVASGHSLLRDPRHNKGLAFSEAERDAHYLRGLLPPAIVSQEHQEKKIMHNLRQYTVPLQRYIAMMDLQERNERLFYKLLIDNVEELLPVVYTPVVGEACQKYGSIYRRPQGLYISLKDKGKVLEVLKNWPERSIQVIVVTDGERILGLGDLGCQGMGIPVGKLSLYTALGGVRPSACLPITIDVGTNNQTLLDDEYYIGLKQRRATGEEYHELLQEFMNAVKQNYGEKVLVQFEDFANHNAFDLLAKYSKSHLVFNDDIQGTASVVLAGLLAALKVIGGGLADQTYLFLGAGEAGTGIAELIALEMSKHTDLPLDDCRKKIWLVDSKGLLVESRKESLQHFKKPFAHEHEPLTTLLEAVQSLKPTVLIGTSGVGKTFTQEVVEAMASFNEKPVIFSLSNPTSHSECTAEEAYTWTKGTAVFASGSPFDPVEYEGKTYVPGQSNNAYVFPGFGLGVVISGAIRVHDDMLLAASEALAEQVSQENFDKGLIFPPFTNIRKISANIAAKVAAKAYDLGLASRLPRPDDLVKYAESCMYTPLYRSYR
modifications: Phleum Pratense

Test system: cultured PBMCs of the allergic donors
Assay: ELISPOT of IL-5 or IFNg production by cultured PBMCs of TG allergic donors in response to peptide
Format: cell-based, human
Conditions: for NTGA's containing at least one T cell epitope, Th+ (Col 2): NTGA number given = criterion met, TG allergic donors n=20; for No of PG+ & th+ peptides per NTGA / No of PP & Th+ peptides per NTGA: Table 6; for No of PG+ & th+ peptides per NTGA: PG+ peptides recognized by T cells of grass allergic donors (n=20); for No of PP & Th+ peptides per NTGA: PP peptides recognized by T cells of grass allergic donors (n=20); for # Th+: Table 7, peptides per NTGA recognized by T cells of grass allergic donors (n=20)
Method in brief: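 Counts of responding donors among 20 TG-allergic subjects, judged by ELISPOT for IL-5 or IFNg (positive: minimum 20 SFCs/10^6 PBMCs, stimulation index 2 or more, P .05). Cells were pre-expanded with TG pollen extract or peptide pool, then stimulated at 1×10^5/well with 10 μg/mL peptide.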

Molecule | NTGA's containing at least one T cell epitope, Th+ (Col 2) | No of PG+ & th+ peptides per NTGA | No of PP & Th+ peptides per NTGA | # Th+
B1 | 51 | 2 | 1 | 0
B2 | 77 | 4 | 2 | 0
B3 | 65 | 2 | 0 | 0
B4 | 34 | 3 | 1 | 0
B5 | 56 | 1 | 1 | 0
B6 | 76 | 5 | 0 | 0
B7 | 32 | 4 | 4 | 0
B8 | 62 | 1 | 0 | 2
B9 | 30 | 1 | 1 | 0
